In patent US10023484B2, “Use of peracetic acid/hydrogen peroxide and peroxide-reducing agents for treatment of drilling fluids, frac fluids, flowback water and disposal water” (Ecolab USA Inc., priority 2012, dated 2018):

Experiments:
[1] = POAA and H2O2 loss with CoMo peroxide-reducing agent (Example 20); type: physicochemical; settings: 10 g CoMo
Text: (§1) Various additional inorganic metals and metal compounds were further evaluated for use as peroxide decomposition catalysts (e.g. peroxide-reducing agents) according to the methods of the invention. The metals were provided as solid catalysts to POAA solutions.

[2] = POAA and H2O2 loss with NiW peroxide-reducing agent (Example 20); type: physicochemical; settings: 10 g NiW
Text: as §1

[3] = POAA and H2O2 loss with Mo peroxide-reducing agent (Example 20); type: physicochemical; settings: 10 g Mo
Text: as §1

[4] = POAA and H2O2 loss with NiMo peroxide-reducing agent (Example 20); type: physicochemical; settings: 10 g NiMo
Text: as §1

[5] = Field application of catalase (ES 2000) in pond water: room temperature, sunlight, shielded (Example 22); type: physicochemical
Protocol: A field of use application was analyzed to determine efficacy of the peroxide-reducing catalase enzyme in pond waters under ambient conditions. Catalase (ES 2000) was used in a pond water source (370000 barrel (bbl.)) to reduce/eliminate H2O2 in a POAA peracid composition. The pond water when sampled contained both POAA and H2O2. The treatments analyzed were based on established laboratory data, which at 1 ppm use level selectively eliminated H2O2 to zero within 4 hours. […] Therefore, 100 gram samples of the pond water were used to add various levels of either 1 ppm catalase (Table 33) or 2 ppm catalase (Table 34).
The samples were then stored at various conditions identified: ambient room temperature, outside under sunlight, outside shielded from sunlight. The level of hydrogen peroxide was assayed at various times (shown at 0 hours and 2 hours) to check the functionality of the catalase peroxide-reducing agent. As referred to in the Tables, the following measurements are set forth as follows: EP1 V (ml 0.05N Na2S2O3) and EP2 V (ml 0.05N Na2S2O3).

[6] = Catalase (ES2000) amount needed in treated water source, iodometric titration (Example 15); type: physicochemical
Protocol: Field of use applications were analyzed to determine the amount of a peroxide-reducing enzyme necessary to obtain desired concentrations of both peracid and hydrogen peroxide in a treated water source. EnviroSan (POAA) peracid composition was added to water to reach the targeted POAA concentrations set forth in Table 18, and the concentration of both POAA and H2O2 were confirmed by iodometric titration. Then catalase (ES2000) was added to the solution, and the sample was stored under ambient conditions. The concentration of POAA and H2O2 were monitored by the iodometric conditions.

[7] = Hydrogen peroxide reduction by catalase in 2%, 3%, 5% peracid compositions, iodometric assay (Example 13); type: physicochemical
Protocol: The concentration of peracid compositions was evaluated to determine the peroxide-reducing capability of enzymes. A catalase enzyme was evaluated for efficacy in reducing hydrogen peroxide at varying concentrations under increasingly concentrated peracid compositions. The commercially-available peracid (POAA) composition EnviroSan (Ecolab, Inc., St. Paul, Minn.) was evaluated using catalase enzymes added to 2%, 3%, and 5% peracid compositions. The catalase enzymes were added to the POAA solution and gently stirred under ambient conditions. After the addition of catalase, the stirring was discontinued, and the samples were taken for iodometric assay.

[8] = tested on: produced water samples (planktonic bacteria); test: Planktonic kill study, ATP quantification assay; type: cell-based; settings: PAA/H2O2 25 ppm
Protocol: Planktonic kill studies were performed as an evaluation of biocide efficiency for PAA/H2O2 and PAA/H2O2/Catalase applications. Briefly, produced water samples were used to test the kill efficiency of PAA/H2O2 at the following dosages: 25, 50, 75, 150 and 300 ppm PAA. Concentration of catalase was fixed at 1000 ppm. The contact time was set to 10 and 60 minutes. After contact time, bacterial enumeration was performed using ATP quantification assay. Bacterial enumeration was calculated at the end of the appropriate time and biocide efficacy determined by comparison to an untreated sample.

[9] = 1 ppm catalase, Ambient Room, Time 0.00 hr
[10] = 1 ppm catalase, Ambient Room, Time 2.00 hr
[11] = 1 ppm catalase, Outside shield from the sunlight, Time 0.00 hr
[12] = 1 ppm catalase, Outside shield from the sunlight, Time 2.00 hr
[13] = 1 ppm catalase, Outside under the sunlight, Time 0.00 hr
[14] = 1 ppm catalase, Outside under the sunlight, Time 2.00 hr
[15] = 2 ppm catalase, Ambient Room, Time 0.00 hr
[16] = 2 ppm catalase, Ambient Room, Time 2.00 hr
[17] = 2 ppm catalase, Outside shield from the sunlight, Time 0.00 hr
[18] = 2 ppm catalase, Outside shield from the sunlight, Time 2.00 hr
[19] = 2 ppm catalase, Outside under the sunlight, Time 0.00 hr
[20] = 2 ppm catalase, Outside under the sunlight, Time 2.00 hr
[21] = 0.5 ppm catalase, series starting at 14.6 ppm POAA, 0 hr
[22] = 0.5 ppm catalase, series starting at 14.6 ppm POAA, 1 hr
[23] = 0.5 ppm catalase, series starting at 14.6 ppm POAA, 2 hr
[24] = 0.5 ppm catalase, series starting at 14.6 ppm POAA, 3.6 hr
[25] = 0.5 ppm catalase, series starting at 31.1 ppm POAA, 0 hr
[26] = 0.5 ppm catalase, series starting at 31.1 ppm POAA, 1 hr
[27] = 0.5 ppm catalase, series starting at 31.1 ppm POAA, 2 hr
[28] = 0.5 ppm catalase, series starting at 31.1 ppm POAA, 3.6 hr
[29] = 1.0 ppm catalase, series starting at 14.8 ppm POAA, 0 hr
[30] = 1.0 ppm catalase, series starting at 14.8 ppm POAA, 1 hr
[31] = 1.0 ppm catalase, series starting at 14.8 ppm POAA, 2 hr
[32] = 1.0 ppm catalase, series starting at 14.8 ppm POAA, 3.6 hr
[33] = 1.0 ppm catalase, series starting at 30.1 ppm POAA, 0 hr
[34] = 1.0 ppm catalase, series starting at 30.1 ppm POAA, 1 hr
[35] = 1.0 ppm catalase, series starting at 30.1 ppm POAA, 2 hr
[36] = 1.0 ppm catalase, series starting at 30.1 ppm POAA, 3.6 hr
[37] = 2% POAA, 1500 ppm Catalase, 0 min.
[38] = 2% POAA, 1500 ppm Catalase, 6.5 min.
[39] = 3% POAA, 1500 ppm Catalase, 0 min.
[40] = 3% POAA, 1500 ppm Catalase, 6.5 min.
[41] = 3% POAA, 1500 ppm Catalase, 10 min.
[42] = 3% POAA, 1500 ppm Catalase, 15 min.
[43] = 3% POAA, 2500 ppm Catalase, 0 min.
[44] = 3% POAA, 2500 ppm Catalase, 6.5 min.
[45] = 3% POAA, 2500 ppm Catalase, 10 min.
[46] = 3% POAA, 2500 ppm Catalase, 15 min.
[47] = 5% POAA, 1500 ppm Catalase, 0 min.
[48] = 5% POAA, 1500 ppm Catalase, 6.5 min.

## OO [H2O2]
[1]; Time 0
  H2O2 Concentration: 1615
[1]; Time 15
  H2O2 Concentration: 1343
[1]; Time 30
  H2O2 Concentration: 1156
[1]; Time 45
  H2O2 Concentration: 994.5
[1]; Time 60
  H2O2 Concentration: 841.5
[2]; Time 0
  H2O2 Concentration: 1615
[2]; Time 15
  H2O2 Concentration: 1581
[2]; Time 30
  H2O2 Concentration: 1598
[2]; Time 45
  H2O2 Concentration: 1615
[2]; Time 60
  H2O2 Concentration: 1615
[3]; Time 0
  H2O2 Concentration: 1615
[3]; Time 15
  H2O2 Concentration: 1334.5
[3]; Time 30
  H2O2 Concentration: 1181.5
[3]; Time 45
  H2O2 Concentration: 986
[3]; Time 60
  H2O2 Concentration: 841.5
[4]; Time 0
  H2O2 Concentration: 1615
[4]; Time 15
  H2O2 Concentration: 1581
[4]; Time 30
  H2O2 Concentration: 1555.5
[4]; Time 45
  H2O2 Concentration: 1530
[4]; Time 60
  H2O2 Concentration: 1496

## Catalase
[5]; [9]
  H2O2: 6.8 ppm
  POAA: 5.7 ppm
[5]; [10]
  H2O2: 1.3 ppm
  POAA: 5.7 ppm
[5]; [11]
  H2O2: 6.8 ppm
  POAA: 5.7 ppm
[5]; [12]
  H2O2: 0.9 ppm
  POAA: 5.7 ppm
[5]; [13]
  H2O2: 6.8 ppm
  POAA: 5.7 ppm
[5]; [14]
  H2O2: 6.8 ppm
  POAA: 4.75 ppm
[5]; [15]
  H2O2: 6.8 ppm
  POAA: 5.7 ppm
[5]; [16]
  H2O2: 0.0 ppm
  POAA: 5.7 ppm
[5]; [17]
  H2O2: 6.8 ppm
  POAA: 5.7 ppm
[5]; [18]
  H2O2: 0.0 ppm
  POAA: 5.7 ppm
[5]; [19]
  H2O2: 6.8 ppm
  POAA: 5.7 ppm
[5]; [20]
  H2O2: 4.3 ppm
  POAA: 4.75 ppm
[6]; [21]
  H2O2 (ppm): 12.0 ppm
  POAA (ppm): 14.6 ppm
[6]; [22]
  H2O2 (ppm): 7.5 ppm
  POAA (ppm): 15.0 ppm
[6]; [23]
  H2O2 (ppm): 6.5 ppm
  POAA (ppm): 14.3 ppm
[6]; [24]
  H2O2 (ppm): 1.8 ppm
  POAA (ppm): 14.2 ppm
[6]; [25]
  H2O2 (ppm): 22.8 ppm
  POAA (ppm): 31.1 ppm
[6]; [26]
  H2O2 (ppm): 12.2 ppm
  POAA (ppm): 32.0 ppm
[6]; [27]
  H2O2 (ppm): 7.8 ppm
  POAA (ppm): 29.2 ppm
[6]; [28]
  H2O2 (ppm): 3.4 ppm
  POAA (ppm): 30.6 ppm
[6]; [29]
  H2O2 (ppm): 12.6 ppm
  POAA (ppm): 14.8 ppm
[6]; [30]
  H2O2 (ppm): 3.7 ppm
  POAA (ppm): 14.6 ppm
[6]; [31]
  H2O2 (ppm): 1.1 ppm
  POAA (ppm): 14.2 ppm
[6]; [32]
  H2O2 (ppm): 0.4 ppm
  POAA (ppm): 15.9 ppm
[6]; [33]
  H2O2 (ppm): 23.3 ppm
  POAA (ppm): 30.1 ppm
[6]; [34]
  H2O2 (ppm): 7.6 ppm
  POAA (ppm): 31.0 ppm
[6]; [35]
  H2O2 (ppm): 2.3 ppm
  POAA (ppm): 29.6 ppm
[6]; [36]
  H2O2 (ppm): 0.0 ppm
  POAA (ppm): 29.3 ppm
[7]; [37]
  H2O2: 1.36% H2O2
  POAA: 2.0% POAA
[7]; [38]
  H2O2: 0.08% H2O2
  POAA: 2.05% POAA
[7]; [39]
  H2O2: 2.04% H2O2
  POAA: 3.0% POAA
[7]; [40]
  H2O2: 0.33% H2O2
  POAA: 2.97% POAA
[7]; [41]
  H2O2: 0.23% H2O2
  POAA: 2.83% POAA
[7]; [42]
  H2O2: 0.21% H2O2
  POAA: 2.95% POAA
[7]; [43]
  H2O2: 2.04% H2O2
  POAA: 2.0% POAA
[7]; [44]
  H2O2: 0.33% H2O2
  POAA: 2.99% POAA
[7]; [45]
  H2O2: 0.23% H2O2
  POAA: 2.95% POAA
[7]; [46]
  H2O2: 0.21% H2O3
  POAA: 2.87% POAA
[7]; [47]
  H2O2: 3.40% H2O2
  POAA: 5.0% POAA
[7]; [48]
  H2O2: 3.81% H2O2
  POAA: 4.96% POAA
[8]; after 10 minutes
  increase of biocide efficiency by addition of 1000 ppm catalase: 48%
[8]; after 60 minutes
  increase of biocide efficiency by addition of 1000 ppm catalase: 23%
